Data as given in paper PMC6430831.
One block for each substance: values may come before it.

Assays:
[1] = target: IKKε (UniProt Q14164); assay: anti-GEF-H1 co-IP, IKKε blot; settings: sites S886
[2] = target: IRF5 (UniProt Q13568); assay: anti-GEF-H1 co-IP, IRF5 blot; settings: reference: wild type; sites S886

binding against the reference ([1]; reference: S324A): stronger
Substance: GEF-H1 (from UniProt Q92974) S324A/S886A

binding against the reference ([1]; reference: S399A): gained
Substance: GEF-H1 (from UniProt Q92974) S399A/S886A

binding against the reference ([1]; reference: wild type): stronger
binding against the reference [2]: stronger
Substance: GEF-H1 (from UniProt Q92974) S886A
